Positions count from the first letter of the chain named. Numbers in names are those of the source. Entries after “also recorded” stand apart in the source; their conditions may differ.
How the values were obtained:
[1] = Luminescence activities of MLuc and its variants; format: cell-based; conditions: for luminescence stability of MLuc variants: measured every 0.5 seconds
Method: These variants were individually introduced in equal amounts into living cells, and their relative luminescence spectra were measured. […] In order to examine the luminescence stability of the variants produced in the present invention, temporal changes in the luminescence intensity after the introduction of the substrate were measured every 0.5 seconds (FIG. 15B). […] Further, in order to examine the long-wavelength luminescence intensities of the variants, the luminescence intensities of the variants were measured using a 610 nm long-pass filter. […] Results similar to the above tendency were obtained from the measurement of the luminescence intensities before and after the introduction of the substrate (FIG. 15D).

[2] = Temporal changes in bioluminescence intensity after substrate introduction (stability); conditions: for bioluminescence stability and strength: substrate in modified Matthew's buffer; for bioluminescence stability, short time: 5 seconds; for bioluminescence stability, short time / bioluminescence stability, long time: substrate in PBS buffer; for bioluminescence stability, long time: 10 minutes
Method: First, a gene encoding each GLuc variant was cloned into pcDNA 3.1(+), and the same amount of plasmid was introduced into COS-7 cells. The cells were collected 16 hours after the introduction, lysed in cell lysate, and then transferred to a microplate reader. PBS buffer in which coelenterazine is dissolved was set to a substrate injector of the plate reader. At the measurement, after the substrate was automatically injected into each well, changes in the luminescence intensities were measured every 0.05 seconds.
Note that the composition of the modified Matthew's buffer contains the following components: • 100 mM potassium phosphate, 500 mM sodium chloride, 1 mM ethylenediaminetetraacetic acid (EDTA), 0.15 mg/ml porcine gelatin, pH 5.0, 1% Nonyiphenol ethoxylates (Tergitol NP-9) and 1% Antifoam, 25 mM thiourea, and 0.1% DMSO.

BALE/c nude mice = test: In vivo imaging of transplanted COS-7 cells expressing GLuc or 8990; conditions: subcutaneous COS-7 cells, coelenterazine injected; listed as 8990
Method: Subsequently, both of these transformed cells were transplanted into subcutaneous tissues of the back on the left and right sides of BALE/c nude mice (5-week-old female). After waiting 12 hours to allow stabilization of the transplanted cells, an equal amount of substrate (coelenterazine) was injected. Subsequently, the developed bioluminescence intensities were compared (FIG. 16A).

[3] = Area of luminescence spectrum of GLuc variants (20-minute lysis, luminescence plate reader); format: biochemical; conditions: for bioluminescence intensity higher than GLuc (area ratio): plate reader; for bioluminescence intensity (area of spectrum), in words: versus original GLuc
Method: In this case, a protocol for immersing the lysate samples in lysis solution for 20 minutes was employed (uniformed cell lysates even whose organelles are lysed). The area of the luminescence spectrum measured by a luminescence plate reader was used as the index of the luminescence intensity.

[4] = Luminescence spectrum of GLuc variants in COS-7 cell lysates (5-minute lysis, spectrophotometer); format: biochemical; conditions: for luminescence intensity higher than GLuc (peak of luminescence spectrum): COS-7 lysate, coelenterazine; for luminance (peak of luminescence spectrum), in words: versus original GLuc
Method: Subsequently, cell lysates were prepared from the COS-7 cells in each well (5-minute lysis), and a spectrum was measured in the presence of a luciferase-specific substrate (coelenterazine), using a fluorescence spectrophotometer (F-7000, Hitachi), thereby examining the effect of the introduced mutation. FIGS. 4B-1 and 4C show the results.
Additionally, in the preparation of cell samples, the samples are immersed in a lysis solution for 5 minutes. This allows preparation of non-uniform samples of cells whose organelles are not lysed, by a quick process.

[5] = Luminescence activities of MpLuc1 and its variants; format: cell-based; conditions: for luminescence stability compared with MpLuc1: microplate reader
Method: These variants were individually introduced in equal amounts into living cells, and their relative luminescence intensities were measured.

B1: MLuc4: Y122W/I123L/H128E/Y130W variant of MLuc (protein)
chain: MDIKVVFTLVFSALVQAKSTEFDPNIDIVGLEGKFGITNLETDLFTIWETMEVMIKADIADTDRASNFVATETDANRGKMPGKKLPLAVIMEMEANAFKAGCTRGCLICLSKIKCTAKMKVWLPGRCEDWGGDKKTGQAGIVGAIVDIPEISGFKEMAPMEQFIAQVDRCASCTTGCLKGLANVKCSELLKKWLPDRCASFADKIQKEVHNIKGMAGDR
modifications: MLuc mutant (Y122W/I123L/H128E/Y130W); MLuc4
notes: Y122W/I123L/H128E/Y130W variant of MLuc
luminescence stability of MLuc variants [1]: most stable bioluminescence | luminescence stability of MLuc variants ([1]; listed as Mluc4): more stable bioluminescence

B2: I123L: MLuc with I123L mutation introduced; corresponds to I90 of GLuc (protein)
chain: B1 chain with W122Y, E128H, W130Y
modifications: MLuc mutant (I123L)
long-wavelength luminescence intensity ([1]; 610 nm long-pass filter): strong bioluminescence in the red wavelength | luminescence intensity compared to original MLuc ([1]; luminescence spectrum): increased

B3: F89W/I90L: GLuc with isoleucine 90 replaced with leucine and phenylalanine 89 with tryptophan (protein)
chain: MGVKVLFALICIAVAEAKPTENNEDFNIVAVASNFATTDLDADRGKLPGKKLPLEVLKEMEANARKAGCTRGCLICLSHIKCTPKMKKWLPGRCHTYEGDKESAQGGIGEAIVDIPEIPGFKDLEPMEQFIAQVDLCVDCTTGCLKGLANVQCSDLLKKWLPQRCATFASKIQGQVDKIKGAGGDKDEL
modifications: GLuc mutant (F89W/I90L); named 8990
bioluminescence stability and strength [2]: very stable and strong bioluminescence | bioluminescence at transplantation site versus GLuc (BALE/c nude mice): stronger bioluminescence | bioluminescence intensity higher than GLuc (area ratio) [3]: 10.2 times | bioluminescence intensity (area of spectrum), in words [3]: particularly high bioluminescence intensity

B4: I108V: GLuc variant, position 108 replaced with valine (protein)
chain: B3 chain with W89F, L90I, D100N, I108V
modifications: GLuc mutant (I108V)
luminescence intensity higher than GLuc (peak of luminescence spectrum) [4]: 6.7 times | luminance (peak of luminescence spectrum), in words [4]: particularly high luminance

B5: Y97W: GLuc variant in which tyrosine (Y) at position 97 was mutated to tryptophan (W) (protein)
chain: B3 chain with W89F, L90I, Y97W
modifications: GLuc mutant (Y97W)
bioluminescence stability, short time [2]: stable luminescence intensities; also recorded: relatively stable bioluminescences | bioluminescence intensity higher than GLuc (area ratio) [3]: 2.1 times | bioluminescence intensity (area of spectrum), in words [3]: particularly high bioluminescence intensity

B6: I118V: GLuc variant, position 118 replaced with valine (protein)
chain: B3 chain with W89F, L90I, D100N, I118V
modifications: GLuc mutant (I118V)
luminance (peak of luminescence spectrum), in words [4]: particularly high luminance

B7: I90V: GLuc variant, isoleucine at position 90 mutated to valine (protein)
chain: B3 chain with W89F, L90V, D100N
modifications: GLuc mutant (I90V)
luminance (peak of luminescence spectrum), in words [4]: particularly high luminance | bioluminescence stability, long time [2]: relatively stable

B8: H95E: GLuc variant, histidine at position 95 replaced with glutamic acid (protein)
chain: B3 chain with W89F, L90I, H95E
modifications: GLuc mutant (H95E)
bioluminescence intensity higher than GLuc (area ratio) [3]: 3.0 times | bioluminescence intensity (area of spectrum), in words [3]: particularly high bioluminescence intensity

B9: I90L/I115L: GLuc with isoleucine at positions 90 and 115 replaced with leucine (protein)
chain: B3 chain with W89F, I115L
modifications: GLuc mutant (I90L/I115L)
bioluminescence stability and strength [2]: very stable and strong bioluminescence | bioluminescence intensity higher than GLuc (area ratio) [3]: 4.9 times | bioluminescence intensity (area of spectrum), in words [3]: particularly high bioluminescence intensity

B10: F89W: GLuc variant, F at position 89 replaced with W (protein)
chain: B3 chain with L90I
modifications: GLuc mutant (F89W)
luminescence intensity higher than GLuc (peak of luminescence spectrum) [4]: 9 times | luminance (peak of luminescence spectrum), in words [4]: particularly high luminance | bioluminescence stability, short time [2]: relatively unstable luminescence intensity | bioluminescence stability, long time [2]: relatively unstable | decrease of bioluminescence intensity ([2]; within 10 minutes after introduction of substrate): about 60%

B11: I114L: MpLuc1 with a mutation introduced into I114; corresponds to I90 of GLuc (protein)
chain: MMEIQVLFALICFALVQANPTENKDDIDIVGVEGKFGTTDLETDLFTIVEDMNVISRDTNLANSDADRGKMPGKKLPLEVLIEMEANARKAGCTRGCLICLSKIKCTAKMKVYLPGRCHDYGGDKKTGQAGIVGAIVDIPEISGFKELGPMEQFIAQVDLCADCTTGCLKGLANVKCSALLKKWLPDRCASFADKIQSEVDNIKGLAGDRKDEL
modifications: MpLuc1 mutant (I114L)
luminescence intensity compared to original MpLuc1 ([5]; luminescence spectrum): higher luminescence intensity | luminescence stability compared with MpLuc1 [5]: more stable bioluminescences

B12: MpLuc4: Y113W/I114L/H119E/Y121W variant of MpLuc1 (protein)
chain: MMEIQVLFALICFALVQANPTENKDDIDIVGVEGKFGTTDLETDLFTIVEDMNVISRDTNLANSDADRGKMPGKKLPLEVLIEMEANARKAGCTRGCLICLSKIKCTAKMKVWLPGRCEDWGGDKKTGQAGIVGAIVDIPEISGFKELGPMEQFIAQVDLCADCTTGCLKGLANVKCSALLKKWLPDRCASFADKIQSEVDNIKGLAGDR
modifications: MpLuc1 mutant (Y113W/I114L/H119E/Y121W); MpLuc4
notes: Y113W/I114L/H119E/Y121W variant of MpLuc1
initial luminescence intensity sustained ([5]; 10 seconds after introduction of substrate): 60% | luminescence stability compared with MpLuc1 [5]: more stable bioluminescences

Source: patent US20120034672A1, “[…] LUCIFERASE VARIANT WITH PROLONGED BIOLUMINESCENCE” (priority 2009, published 2012)
